Data on 1 molecule can be found in patent publication US20230331820A1 (GlaxoSmithKline, published 2023).

For assay [1], the target named is gEgI mutant (338): HSV2 gEgI mutant heterodimer comprising gE and gI ectodomains with insertion of a (HSV2, UniProt P89475 21-416; P06764 21-256). In words: ELISA, supernatant. In general terms: ELISA stands for enzyme-linked immunosorbent assay.
The target in assay [2] is gI WT: HSV2 gI wildtype ectodomain (HSV2, UniProt P06764 21-256). In words: ELISA, supernatant.
In assay [3] the target is T1, gEgI WT: HSV2 gEgI heterodimer comprising gE and gI wildtype ectodomains (HSV2, UniProt P89475 21-416; P06764 21-256). In words: Biacore SPR, gEgI HEK BMP1063 at 10 µg/ml for 180 s over the mAb.
The target in assay [4] is T2, gEgI mutant (P317R): HSV2 gEgI mutant heterodimer comprising gE and gI ectodomains with mutation P317R in gE (HSV2, UniProt P89475 21-416; P06764 21-256). In words: SPR single-cycle kinetics, mAb captured on RAM; gEgI mutant batch 1.
Assay [5] addresses T1, gEgI WT: HSV2 gEgI heterodimer …. In words: SPR single-cycle kinetics, mAb captured on RAM, gEgI as analyte, 1:1 model.
Assay [6] concerns the target T2, gEgI mutant (P317R): HSV2 gEgI mutant …. In words: SPR single-cycle kinetics, mAb captured on RAM; gEgI mutant batch 2.
In assay [7] the target is T1, gEgI WT: HSV2 gEgI heterodimer …. In words: Biacore SPR, gEgI CHO BMP1181 at 10 µg/ml for 180 s over the mAb. In general terms: SPR reads the build-up and loss of mass on a sensor chip optically.

B1: mAb clone 12, 13 (antibody, V domains shown)
VH: QVQLKESGPGLVAPSQSLSITCTVSGFSLTSYGVHWVRQPPGKGLEWLGVIWAGGSTNYNSALMSRLSISKDNSKSQVFLKMNSLQTDDTAMYFCARGGITSLHNYVMDYWGQGTSVTVSS
VL: DIVLTQSPASLAVSLGQRATISCRASESVEYYGTSLMQWYQQKPGQPPKLLIYAASNVESGVPARFSGSGSGTHFSLNIHPVEEDDIAMYFCQQSRKVPSTFGGGTKLEIK
notes: also called mAb 12; mAb12
On to B1, for which the values for the binding result in assay [1] and in assay [2] were “binds” and “no binding”, respectively. Besides, the “RU Ag/250 RU mAbs” value in assay [3] was 108 RU Ag/250 RU mAbs; in assay [7], 112 RU Ag/250 RU mAbs. Moreover, the equilibrium dissociation constant (Kd) in assay [4] is 7.68 nM; in assay [5], 6.89 nM; in assay [6], 11.5 nM. Besides, the koff in assay [4] came to 0.00325 s⁻¹; in assay [5], 0.00197 s⁻¹; in assay [6] it was 0.00324 s⁻¹. The kon in assay [4] was 422000 M⁻¹ s⁻¹; in assay [5] it was 285000 M⁻¹ s⁻¹; in assay [6], 280000 M⁻¹ s⁻¹.

A word on the Kd: it is the constant that tells how readily two partners part at equilibrium. Read a high Kd as weaker binding. For orientation: koff means a measure of how fast the partners let go of each other. Lower therefore signals a long-lived complex. For orientation: kon means a measure of how fast the partners come together. Higher therefore signals fast association.
